Patent US20250002610A1 (Genmab, published 2025)
Substitutions are numbered along the chain they refer to.

T1: human DR4 (Death Receptor 4), cell surface expressed on human tumor cell lines (human, UniProt O00220 24-468)
T1 construct: also called TNFRSF10A; TRAIL-R1
T1 sequence: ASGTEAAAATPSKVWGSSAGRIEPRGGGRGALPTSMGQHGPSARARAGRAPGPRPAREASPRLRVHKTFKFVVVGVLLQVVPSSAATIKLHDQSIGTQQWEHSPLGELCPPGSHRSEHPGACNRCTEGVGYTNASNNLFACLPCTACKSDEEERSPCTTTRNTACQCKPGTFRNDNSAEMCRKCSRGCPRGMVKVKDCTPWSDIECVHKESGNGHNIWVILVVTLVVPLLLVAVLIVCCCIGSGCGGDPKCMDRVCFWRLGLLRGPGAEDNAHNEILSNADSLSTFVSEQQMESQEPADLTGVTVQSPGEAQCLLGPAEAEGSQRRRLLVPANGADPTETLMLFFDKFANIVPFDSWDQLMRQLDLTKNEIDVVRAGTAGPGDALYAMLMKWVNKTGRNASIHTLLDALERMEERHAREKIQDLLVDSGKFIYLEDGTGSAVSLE

T2: human FAPα (Fibroblast activation protein alpha), cell surface expressed (human, UniProt Q12884 1-760)
T2 construct: Endogenous on human lung fibroblasts and CAFs
T2 sequence: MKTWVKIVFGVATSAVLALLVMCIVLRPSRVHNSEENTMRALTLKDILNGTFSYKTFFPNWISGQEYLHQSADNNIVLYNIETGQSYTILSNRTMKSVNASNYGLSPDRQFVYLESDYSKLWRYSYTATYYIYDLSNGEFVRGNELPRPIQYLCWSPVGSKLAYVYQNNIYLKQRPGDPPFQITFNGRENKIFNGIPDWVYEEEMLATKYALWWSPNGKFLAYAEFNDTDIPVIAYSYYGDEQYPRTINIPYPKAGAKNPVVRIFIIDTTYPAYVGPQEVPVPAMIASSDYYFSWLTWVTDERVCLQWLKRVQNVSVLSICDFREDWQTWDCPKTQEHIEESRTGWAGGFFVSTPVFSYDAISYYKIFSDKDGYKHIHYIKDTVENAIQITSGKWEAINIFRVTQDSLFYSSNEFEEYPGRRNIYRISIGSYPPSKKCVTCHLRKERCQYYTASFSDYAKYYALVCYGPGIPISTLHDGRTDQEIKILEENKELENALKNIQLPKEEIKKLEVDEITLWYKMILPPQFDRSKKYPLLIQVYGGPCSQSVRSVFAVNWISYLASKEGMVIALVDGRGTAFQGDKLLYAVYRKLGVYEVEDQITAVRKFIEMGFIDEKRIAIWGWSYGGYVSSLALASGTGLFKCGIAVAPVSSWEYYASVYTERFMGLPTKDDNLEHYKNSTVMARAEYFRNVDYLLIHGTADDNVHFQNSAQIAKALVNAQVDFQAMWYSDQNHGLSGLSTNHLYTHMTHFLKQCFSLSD

B1: BisG1-FAPα-FERL/DR4-FERR (bispecific antibody, human IgG1, kappa, lambda)
heavy 1: EVQLLESGGGLVQPGGSPRLSCEASGFTFSSYALSWVRQAPGKGLEWVSAISGSGGGRYYADSVKGRFTISRDNSKNTLFLQMNSLRAEDTAVYYCAKEGYSSSGTYWDHWGQGTLVTVSSASTKGPSVFPLAPSSKSTSGGTAALGCLVKDYFPEPVTVSWNSGALTSGVHTFPAVLQSSGLYSLSSVVTVPSSSLGTQTYICNVNHKPSNTKVDKRVEPKSCDKTHTCPPCPAPEFERGPSVFLFPPKPKDTLMISRTPEVTCVVVDVSHEDPEVKFNWYVDGVEVHNAKTKPREEQYNSTYRVVSVLTVLHQDWLNGKEYKCKVSNKALPAPIEKTISKAKGQPREPQVYTLPPSREEMTKNQVSLTCLVKGFYPSDIAVEWESNGQPENNYKTTPPVLDSDGSFLLYSKLTVDKSRWQQGNVFSCSVMHEALHNHYTQKSLSLSPG
light 1: AIQMTQSPSSVSASVGDRVTITCRASQGVSSWLAWYQQKPGRAPKLLIYVASTLQSGVPSRFSGSGSGTDFTLTINSLQPEDFATYYCQQANSFPPTFGQGTRLEMKRTVAAPSVFIFPPSDEQLKSGTASVVCLLNNFYPREAKVQWKVDNALQSGNSQESVTEQDSKDSTYSLSSTLTLSKADYEKHKVYACEVTHQGLSSPVTKSFNRGEC
heavy 2: QVQLQESGPGLVKPSGTLSLTCAVSGGSISSYSWWSWIRQPPGKGLEWIGELYHSGSTNYNPSLKSRVTISVDKSKNQFSLKLRSVTAADTAVYYCVRGVATIDYWGQGTLVTVSSASTKGPSVFPLAPSSKSTSGGTAALGCLVKDYFPEPVTVSWNSGALTSGVHTFPAVLQSSGLYSLSSVVTVPSSSLGTQTYICNVNHKPSNTKVDKRVEPKSCDKTHTCPPCPAPEFERGPSVFLFPPKPKDTLMISRTPEVTCVVVDVSHEDPEVKFNWYVDGVEVHNAKTKPREEQYNSTYRVVSVLTVLHQDWLNGKEYKCKVSNKALPAPIEKTISKAKGQPREPQVYTLPPSREEMTKNQVSLTCLVKGFYPSDIAVEWESNGQPENNYKTTPPVLDSDGSFFLYSRLTVDKSRWQQGNVFSCSVMHEALHNHYTQKSLSLSPG
light 2: QSALTQPPSASGSPGQSVTISCTGTSSDVGGYNFVSWYQQDPGKAPKLLIYEVTKRPSGVPDRFSGSKSGNTASLTVSGLQAEDEADYYCSSYAGSNNVMFGGGTKLTVLGQPKAAPSVTLFPPSSEELQANKATLVCLISDFYPGAVTVAWKADSSPVKAGVETTTPSKQSNNKYAASSYLSLTPEQWKSHRSYSCQVTHEGSTVEKTVAPTECS
notes: Human IgG1 bispecific made by controlled Fab-arm exchange of IgG1-FAPα-FERL and IgG1-DR4-FERR; monovalent for FAPα and for DR4; also called GEN1057
B2: BisG1-FAPα-FERL/b12-FERR (bispecific antibody, human IgG1, kappa)
heavy 1: B1 heavy 1
light 1: B1 light 1
heavy 2: QVQLVQSGAEVKKPGASVKVSCQASGYRFSNFVIHWVRQAPGQRFEWMGWINPYNGNKEFSAKFQDRVTFTADTSANTAYMELRSLRSADTAVYYCARVGPYSWDDSPQDNYYMDVWGKGTTVIVSSASTKGPSVFPLAPSSKSTSGGTAALGCLVKDYFPEPVTVSWNSGALTSGVHTFPAVLQSSGLYSLSSVVTVPSSSLGTQTYICNVNHKPSNTKVDKRVEPKSCDKTHTCPPCPAPEFERGPSVFLFPPKPKDTLMISRTPEVTCVVVDVSHEDPEVKFNWYVDGVEVHNAKTKPREEQYNSTYRVVSVLTVLHQDWLNGKEYKCKVSNKALPAPIEKTISKAKGQPREPQVYTLPPSREEMTKNQVSLTCLVKGFYPSDIAVEWESNGQPENNYKTTPPVLDSDGSFFLYSRLTVDKSRWQQGNVFSCSVMHEALHNHYTQKSLSLSPG
light 2: EIVLTQSPGTLSLSPGERATFSCRSSHSIRSRRVAWYQHKPGQAPRLVIHGVSNRASGISDRFSGSGSGTDFTLTITRVEPEDFALYYCQVYGASSYTFGQGTKLERKRTVAAPSVFIFPPSDEQLKSGTASVVCLLNNFYPREAKVQWKVDNALQSGNSQESVTEQDSKDSTYSLSSTLTLSKADYEKHKVYACEVTHQGLSSPVTKSFNRGEC
B3: IgG1-FAPα-FERL (antibody)
heavy: B1 heavy 1
light: B1 light 1
notes: Bivalent monoclonal IgG1 kappa
B4: BisG1-b12-FERL/DR4-FERR (bispecific antibody, human IgG1, kappa, lambda)
heavy 1: B2 heavy 2 with F415L, R419K
light 1: B2 light 2
heavy 2: B1 heavy 2
light 2: B1 light 2
notes: Fab-arm exchange of IgG1-b12-FERL and IgG1-DR4-FERR; also called bsIgG1-ctrl-FERLxDR4-FERR
B5: IgG1-DR4-FERR (antibody, V domains shown)
VH: QVQLQESGPGLVKPSGTLSLTCAVSGGSISSYSWWSWIRQPPGKGLEWIGELYHSGSTNYNPSLKSRVTISVDKSKNQFSLKLRSVTAADTAVYYCVRGVATIDYWGQGTLVTVSS
VL: QSALTQPPSASGSPGQSVTISCTGTSSDVGGYNFVSWYQQDPGKAPKLLIYEVTKRPSGVPDRFSGSKSGNTASLTVSGLQAEDEADYYCSSYAGSNNVMFGGGTKLTVLG
notes: Bivalent monoclonal IgG1 lambda

Key:
[1] = biological target: T1, human DR4 (Death Receptor 4), cell …; assay: flow cytometry, DLD-1 cells, n = 3
[2] = biological target: T2, human FAPα (Fibroblast activation …); assay: flow cytometry, human lung fibroblasts, n = 3
Experimental: Binding of bispecific or monoclonal antibodies carrying the anti-FAPα arm derived from IgG1-FAPα-FERL (BisG1-FAPα-FERL/DR4-FERR, BisG1-FAPα-FERL/b12-FERR, and IgG1-FAPα-FERL) to cell surface expressed human FAPα was analyzed by flow cytometry using human lung fibroblasts and CAFs, which endogenously express FAPα. BisG1-b12-FERL/b12-FERR was used as negative control.
Human lung fibroblasts and CAFs (50,000 cells/well) were seeded in 96-Well round bottom plates (Greiner Bio-one, Cat #650101). Antibody dilutions were prepared using fluorescence-activated cell sorting (FACS) buffer, consisting of phosphate buffer saline (PBS, Lonza, Cat #BE17-517Q)+1% Bovine Serum Albumin (BSA, Roche, Cat #10735086001)+0.02% Sodium Azide (Bio-World, Cat #41920044-3). Plates were centrifuged, supernatant was removed, cells were resuspended in 50 μL of human Fc Block (BD, Cat #564220, diluted 1:100 in FACS buffer) and 50 μL of viability stain TO-PRO-3 Iodide (Thermo Fisher, Cat #T3605, diluted 1: 25,000 in FACS buffer), and incubated for 15 min at 4° C. Plates were washed three times with FACS buffer. Plates were centrifuged, supernatant was removed, cells were resuspended in 50 μL of antibody dilutions (concentration range 90-0.0005 μg/mL, three-fold dilution steps using FACS buffer) of BisG1-FAPα-FERL/DR4-FERR, BisG1-FAPα-FERL/b12-FERR, BisG1-b12-FERL/b12-FERR (top six concentrations only for CAFs culture) or IgG1-FAPα-FERL (top four concentrations only for CAFs culture) and incubated for 30 min at 4° C. Cells were washed three times with FACS buffer and resuspended in 50 μL of Fluorescein isothiocyanate (FITC)-labeled polyclonal antibody goat anti-mouse IgG1 (Jackson Immuno Research, Cat #109-096-097, diluted 1:100 in FACS buffer). […] Antibody binding to viable cells (TO-PRO-3 negative) was analyzed by flow cytometry on a FACSCelesta™ (BD biosciences) and data were processed using FlowJo_v10.8.1 (FlowJo LLC). Geomean fluorescence intensity, gMFI, was determined and visualized using GraphPad Prism.

| Binder | EC50 [1] | EC50 [2] |
| --- | --- | --- |
| B1 | 0.67 µg/mL | 0.059 µg/mL |
| B2 |  | 0.048 µg/mL |
| B3 |  | 0.022 µg/mL |
| B4 | 0.64 µg/mL |  |
| B5 | 0.23 µg/mL |  |
